Reference: doi:10.1101/2022.11.11.516238

Key:
[1] = molecular target: T1, NhaR (Vibrio parahaemolyticus) (UniProt Q87S97); assay: EMSA
T1 sequence: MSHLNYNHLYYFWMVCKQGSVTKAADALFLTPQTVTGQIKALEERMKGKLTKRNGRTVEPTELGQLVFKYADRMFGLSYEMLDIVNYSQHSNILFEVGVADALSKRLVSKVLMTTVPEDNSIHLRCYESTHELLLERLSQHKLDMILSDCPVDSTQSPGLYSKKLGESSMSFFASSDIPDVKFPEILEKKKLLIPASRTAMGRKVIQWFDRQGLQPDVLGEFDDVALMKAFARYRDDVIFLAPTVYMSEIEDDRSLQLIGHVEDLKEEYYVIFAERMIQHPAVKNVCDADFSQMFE

[2] = molecular target: T2, LeuO (Vibrio parahaemolyticus) (UniProt Q87SS2); assay: EMSA
T2 sequence: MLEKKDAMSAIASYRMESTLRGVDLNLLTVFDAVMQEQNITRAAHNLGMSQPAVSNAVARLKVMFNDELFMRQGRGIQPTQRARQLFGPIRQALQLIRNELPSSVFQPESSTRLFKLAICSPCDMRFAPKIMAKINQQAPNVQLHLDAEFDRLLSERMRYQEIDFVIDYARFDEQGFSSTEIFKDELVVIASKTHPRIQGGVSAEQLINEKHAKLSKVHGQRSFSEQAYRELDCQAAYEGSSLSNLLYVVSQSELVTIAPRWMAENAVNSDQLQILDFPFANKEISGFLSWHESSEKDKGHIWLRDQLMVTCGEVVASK

Row | Sequence | binding [1] | binding [2]
1 | CCAAGGTGCTGATGTGATCATTTTGAAATACATATCCTTTGACGTCTAATTAAATTTCGTATTTATTATGGACATTCTTTACGGTTGAAAATCAAATAATCTGCGTTTTAATCTGGATTAATGTG (double strand) [PectA probe 1A] | binds | binds
2 | CCACGACGACAAAACTAACCTTAAAACGGCATGCGAAAGTGTGCCGTTTTTTTATGTAAAAAACCTTAAGTCCCCTCTTTGAAACCCCACTGCATTCTGACTCAT (double strand) [PectA probe 1C] | binds | binds
